According to US20260242478A1 (published 2026):
Where no end group is shown, it is not given here.

B1: Phage-1087 (peptide)
peptide: YCDGHLALYMWKCL
modifications: cysteine pairing not given here; also: displayed as fusion to phage pIII, linker not given here
B2: Phage-1103 (Peptide-87 library clone, SEQ ID NO: 1419) (peptide)
peptide: YCAGHLPMYMQKCL
notes: Tested as clonal phage supernatant; not shown: pIII coat protein of the bacteriophage to which the peptide is fused
B3: Phage-1110 (Peptide-87 library clone, SEQ ID NO: 1426) (peptide)
peptide: YCEGHLPMYMQKCL
notes: as for B2
B4: Phage-1079 (peptide)
peptide: YCDGHLSEYIGKCL
modifications: cysteine pairing not given here; also: displayed as fusion to phage pIII, linker not given here
B5: Phage-1086 (peptide)
peptide: YCDGHVKEYMYKCL
modifications: cysteine pairing not given here; also: displayed as fusion to phage pIII, linker not given here
B6: Phage-1102 (Peptide-87 library clone, SEQ ID NO: 1418) (peptide)
peptide: YCDGHLPLYMQKCF
notes: as for B2
B7: Phage-1109 (Peptide-87 library clone, SEQ ID NO: 1425) (peptide)
peptide: YCEGHLPAYMWKCL
notes: as for B2
B8: Phage-996 (peptide)
peptide: YCDGHTSEYMTKCL
modifications: cysteine pairing not given here; also: displayed fused to phage pIII protein, fusion end and linker not given here
notes: Clonal phage of the peptide-87 library, tested as crude supernatant; not shown: fused to the pIII filament protein of the bacteriophage
B9: Phage-993 (peptide)
peptide: YCAGHDQQYMEKCL
modifications: cysteine pairing not given here; also: displayed fused to phage pIII protein, fusion end and linker not given here
notes: as for B8
B10: Phage-1113 (Peptide-87 library clone, SEQ ID NO: 1429) (peptide)
peptide: YCEGHSAVYMSKCL
notes: as for B2
B11: Phage-1104 (Peptide-87 library clone, SEQ ID NO: 1420) (peptide)
peptide: YCSEHQIIFIQKCL
notes: as for B2
B12: Phage-1078 (peptide)
peptide: YCDGHQPQYMSKCL
modifications: cysteine pairing not given here; also: displayed as fusion to phage pIII, linker not given here
B13: Phage-995 (peptide)
peptide: YCAGHNAQYMSKCL
modifications: cysteine pairing not given here; also: displayed fused to phage pIII protein, fusion end and linker not given here
notes: as for B8
B14: Phage-1084 (peptide)
peptide: YCAGHTSEYMSKCL
modifications: cysteine pairing not given here; also: displayed as fusion to phage pIII, linker not given here
B15: Phage-1112 (Peptide-87 library clone, SEQ ID NO: 1428) (peptide)
peptide: YCDGHSAEYIAKCL
notes: as for B2
B16: Phage-1076 (peptide)
peptide: YCEGHLDEYLQKCL
modifications: cysteine pairing not given here; also: displayed as fusion to phage pIII, linker not given here
B17: Phage-1107 (Peptide-87 library clone, SEQ ID NO: 1423) (peptide)
peptide: YCAGHALEYMGKCL
notes: as for B2
B18: Phage-1085 (peptide)
peptide: YCDGHMKEYMLKCL
modifications: cysteine pairing not given here; also: displayed as fusion to phage pIII, linker not given here
B19: Phage-1111 (Peptide-87 library clone, SEQ ID NO: 1427) (peptide)
peptide: YCDGHIPEYMTKCL
notes: as for B2
B20: Phage-1080 (peptide)
peptide: YCEGHSQLYMAKCL
modifications: cysteine pairing not given here; also: displayed as fusion to phage pIII, linker not given here
B21: Phage-1114 (Peptide-87 library clone, SEQ ID NO: 1430) (peptide)
peptide: YCEGHSLEYMMKCV
notes: as for B2
B22: Phage-1081 (peptide)
peptide: YCDGHSETYLWKCL
modifications: cysteine pairing not given here; also: displayed as fusion to phage pIII, linker not given here
B23: Phage-1075 (peptide)
peptide: YCDGHAPEYIQKCL
modifications: cysteine pairing not given here; also: displayed as fusion to phage pIII, linker not given here
B24: Phage-1105 (Peptide-87 library clone, SEQ ID NO: 1421) (peptide)
peptide: YCEGHLEIYLAKCL
notes: as for B2
B25: Phage-1083 (peptide)
peptide: YCEGHLPEYMIKCI
modifications: cysteine pairing not given here; also: displayed as fusion to phage pIII, linker not given here
B26: Phage-1088 (peptide)
peptide: YCDGHLSIYMTKCL
modifications: cysteine pairing not given here; also: displayed as fusion to phage pIII, linker not given here
B27: Phage-1115 (Peptide-87 library clone, SEQ ID NO: 1431) (peptide)
peptide: YCDGHAPQYMAKCI
notes: as for B2
B28: Phage-1082 (peptide)
peptide: YCEGHLPAYMGKCI
modifications: cysteine pairing not given here; also: displayed as fusion to phage pIII, linker not given here
B29: Phage-1077 (peptide)
peptide: YCDGHLQEYMQKCL
modifications: cysteine pairing not given here; also: displayed as fusion to phage pIII, linker not given here
B30: Phage-1108 (Peptide-87 library clone, SEQ ID NO: 1424) (peptide)
peptide: YCEGHLPEYMIKCL
notes: as for B2
B31: Phage-1106 (Peptide-87 library clone, SEQ ID NO: 1422) (peptide)
peptide: YCDGHTAEFIGKCL
notes: as for B2
B32: Phage-994 (peptide)
peptide: YCDGHLPVYMMKCL
modifications: cysteine pairing not given here; also: displayed fused to phage pIII protein, fusion end and linker not given here
notes: as for B8

Tests used:
[1] = target: T1, Anti-CD28 Fab (SEQ ID NOs: 696, 697); assay: phage binding ELISA; Fab-coated wells pre-incubated with CD28 antigen as competitor, phage detected with anti-M13 HRP
T1 construct: In the phage ELISA the Fab was biotinylated and captured on neutravidin coated plates
T1 sequence (VH, as listed by the source, chain 1 of 2): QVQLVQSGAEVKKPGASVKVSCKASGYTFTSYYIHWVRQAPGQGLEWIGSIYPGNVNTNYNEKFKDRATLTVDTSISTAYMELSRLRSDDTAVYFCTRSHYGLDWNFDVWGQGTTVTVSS
T1 sequence (VL, as listed by the source, chain 2 of 2): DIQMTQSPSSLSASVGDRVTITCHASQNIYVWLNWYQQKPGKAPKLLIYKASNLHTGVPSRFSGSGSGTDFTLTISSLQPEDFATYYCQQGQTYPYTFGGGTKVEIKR
Experimental: (§1) After panning, phage infected bacteria were plated out and colonies picked into 96 well blocks. Clonal phage was then amplified and separated from bacterial cells via centrifugation.
(§2) Clonal phage were harvested as crude supematants and screened via standard ELISAs. […] Prior to the addition of clonal phage, wells were incubated with blocking buffer and CD28 antigen or blocking buffer alone. Without washing or aspirating, clonal phage supematants were then added to the wells and incubated for a short time. Wells were then washed followed by detection of bound phage using a horse radish conjugated anti-M13 antibody. Clonal phage of interest were then sent for sequence analysis.

[2] = target: T1, Anti-CD28 Fab (SEQ ID NOs: 696, 697); assay: phage binding ELISA; biotinylated anti-CD28 Fab on neutravidin plate, clonal phage detected with anti-M13 HRP
Experimental: as §1, §2

[3] = target: T2, Anti-CD28 Fab (SEQ ID NOs: 696, 697); assay: phage ELISA; captured anti-CD28 Fab pre-incubated with CD28 antigen as competitor, anti-M13 HRP detection;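 also: crude clonal phage supernatants screened by ELISA, with wells pre-incubated with CD28 antigen in blocking buffer, compared against wells given blocking buffer alone as control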
T2 construct: In the phage ELISA the Fab was biotinylated and captured on neutravidin coated plates
T2 sequence (VH, as listed by the source, chain 1 of 2): as the sequence (VH, as listed by the source, chain 1 of 2) above
T2 sequence (VL, as listed by the source, chain 2 of 2): as the sequence (VL, as listed by the source, chain 2 of 2) above
Experimental: as §1, §2

[4] = target: T2, Anti-CD28 Fab (SEQ ID NOs: 696, 697); assay: phage ELISA; biotinylated anti-CD28 Fab on neutravidin plate, clonal phage supernatant, anti-M13 HRP detection;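 also: crude supernatants of single phage clones picked after panning were screened for binding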
[5] = target: T3, Anti-CD28 Fab (SEQ ID NOs: 696, 697); assay: phage binding ELISA; Fab-coated wells pre-incubated with CD28 antigen as competitor, anti-M13 HRP detection;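 also: crude clonal phage supernatants from panned colonies added to wells after blocking buffer plus CD28 treatment, bound phage measured after a brief incubation and washing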
T3 construct: In the phage ELISA the Fab was biotinylated and captured on neutravidin coated plates
T3 sequence (VH, as listed by the source, chain 1 of 2): as the sequence (VH, as listed by the source, chain 1 of 2) above
T3 sequence (VL, as listed by the source, chain 2 of 2): as the sequence (VL, as listed by the source, chain 2 of 2) above
Experimental: as §1, §2

[6] = target: T3, Anti-CD28 Fab (SEQ ID NOs: 696, 697); assay: phage binding ELISA; biotinylated anti-CD28 Fab on neutravidin plate, clonal phage supernatant, anti-M13 HRP detection

| Binder | Anti-CD28 Fab signal in the presence of CD28 (phage binding ELISA) [1] | Anti-CD28 Fab signal (phage binding ELISA) [2] | Anti-CD28 Fab signal in the presence of CD28 (phage binding ELISA) [3] | Anti-CD28 Fab signal (phage binding ELISA) [4] | also measured |
| --- | --- | --- | --- | --- | --- |
| B1 | 0.17 | 1.36 |  |  |  |
| B2 |  |  | 0.08 | 1.33 |  |
| B3 |  |  | 0.08 | 1.31 |  |
| B4 | 0.06 | 1.37 |  |  |  |
| B5 | 0.06 | 1.36 |  |  |  |
| B6 |  |  | 0.1 | 1.33 |  |
| B7 |  |  | 0.08 | 1.31 |  |
| B8 |  |  |  |  | Anti-CD28 Fab signal in the presence of CD28 [5]: 0.06; Anti-CD28 Fab signal (phage binding ELISA) [6]: 1.54 |
| B9 |  |  |  |  | Anti-CD28 Fab signal in the presence of CD28 [5]: 0.23; Anti-CD28 Fab signal (phage binding ELISA) [6]: 1.55 |
| B10 |  |  | 0.06 | 1.31 |  |
| B11 |  |  | 0.08 | 1.32 |  |
| B12 | 0.09 | 1.38 |  |  |  |
| B13 |  |  |  |  | Anti-CD28 Fab signal in the presence of CD28 [5]: 0.05; Anti-CD28 Fab signal (phage binding ELISA) [6]: 1.55 |
| B14 | 0.07 | 1.36 |  |  |  |
| B15 |  |  | 0.05 | 1.31 |  |
| B16 | 0.07 | 1.38 |  |  |  |

| Binder | Anti-CD28 Fab signal in the presence of CD28 (phage binding ELISA) [1] | Anti-CD28 Fab signal (phage binding ELISA) [2] | Anti-CD28 Fab signal in the presence of CD28 (phage binding ELISA) [3] | Anti-CD28 Fab signal (phage binding ELISA) [4] | also measured |
| --- | --- | --- | --- | --- | --- |
| B17 |  |  | 0.06 | 1.32 |  |
| B18 | 0.06 | 1.36 |  |  |  |
| B19 |  |  | 0.06 | 1.31 |  |
| B20 | 0.07 | 1.37 |  |  |  |
| B21 |  |  | 0.07 | 1.3 |  |
| B22 | 0.1 | 1.37 |  |  |  |
| B23 | 0.06 | 1.38 |  |  |  |
| B24 |  |  | 0.07 | 1.32 |  |
| B25 | 0.1 | 1.36 |  |  |  |
| B26 | 0.07 | 1.36 |  |  |  |
| B27 |  |  | 0.06 | 1.3 |  |
| B28 | 0.09 | 1.37 |  |  |  |
| B29 | 0.06 | 1.38 |  |  |  |
| B30 |  |  | 0.06 | 1.32 |  |
| B31 |  |  | 0.06 | 1.32 |  |
| B32 |  |  |  |  | Anti-CD28 Fab signal in the presence of CD28 [5]: 0.07; Anti-CD28 Fab signal (phage binding ELISA) [6]: 1.55 |
